The target in this test is T1, Sec8-His (section 8 (Sec8), an antigenic region of CSP-1, tagged with a polyhistidine (His) tag).
T1 construct: also called Sec8-His antigen
T1 chain: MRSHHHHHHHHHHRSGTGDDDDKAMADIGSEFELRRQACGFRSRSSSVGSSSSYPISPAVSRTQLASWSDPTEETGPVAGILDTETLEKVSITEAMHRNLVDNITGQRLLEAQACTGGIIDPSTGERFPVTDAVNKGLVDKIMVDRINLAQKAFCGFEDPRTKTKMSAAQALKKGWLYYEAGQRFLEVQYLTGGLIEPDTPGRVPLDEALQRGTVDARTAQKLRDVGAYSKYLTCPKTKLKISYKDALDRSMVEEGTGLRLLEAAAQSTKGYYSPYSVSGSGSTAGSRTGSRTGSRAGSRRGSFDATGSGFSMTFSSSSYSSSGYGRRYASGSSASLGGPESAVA
The test is described as follows: BLI (Octet), single shot: antibody on anti-human IgG tips, 24 nM Sec8-His. As to the method:
After humanization, the antibodies were tested for their capability to bind to an antigenic region of CSP-1 called section 8 (Sec8). Antigen binding was assessed by single-shot Octet analysis. Antibodies were loaded onto anti-human IgG tips, and the loaded tips were dipped into wells containing the Sec8-His antigen. Scouting experiments were used to determine ideal conditions for loading (10 minute incubation in 1 μg/mL IgG) and antigen binding (5 minute incubation in 24 nM Sec8-His, followed by a 5 minute dissociation step in buffer). Two negative controls were included with each experiment. First, a tip was loaded with irrelevant IgG dipped into 24 nM Sec8-His to control for non-specific interactions between the tip and the antigen. Next, tips loaded with humanized 1D7 variants were dipped into 24 nM GST-His to control for off-target binding of the antibody (a significant risk if a given variant is destabilized and/or exposes significant hydrophobic surface). The data from the irrelevant IgG control were subtracted from the data obtained with the […]-loaded tips. The mean and standard deviation of the signal change values for the GST-His control wells were used to calculate a threshold for positive binding (mean+3 standard deviations of the GST-His signal). Variants that were below this threshold are considered to have no specific binding to Sec8.
For orientation: In BLI a coated tip is dipped into the sample, and binding shifts an interference pattern.

B1: humanized anti-CSP-1 antibody, Antibody Number 16 (Table 1) (antibody, human IgG1, V domains shown)
VH: EVQLVESGGDLVKPGGSLKLSCAASGFTFSRYGMSWVRQTPDKRLEWVATISIGGTYTYYPDSMKGRFTISRDNAKNTLYLQMSSLKSEDTAMYYCARRGYGNYSYYGMDYWGQGTSVTVSS
VL: DIVMTQAAFSNPVTLGTSASISCRSSKSLLHSNGITYLYWYLQKPGQSPQLLIYQMSNLASGVPDRFSSSGSGTDFTLRISRVEAEDVGVYYCAQNLELPLTFGAGTKLELK
notes: also called Antibody 16
Consider B1, for which the binding result is on record as “binds”.

B2: humanized anti-CSP-1 antibody, Antibody Number 17 (Table 1) (antibody, human IgG1, V domains shown)
VH: EVQLVESGGDLVKPGGSLKLSCAASGFTFSRYGMSWVRQTPDKRLEWVATISIGGTYTYYPDSMKGRFTISRDNAKNTLYLQMSSLKSEDTAMYYCARRGYGSYSYYGMDYWGQGTSVTVSS
VL: DIVMTQAAFSNPVTLGTSASISCRSSKSLLHSNGITYLYWYLQKPGQSPQLLIYQMSNLASGVPDRFSSSGSGTDFTLRISRVEAEDVGVYYCAQNLELPLTFGAGTKLELK
notes: also called Antibody 17
For B2, the binding result was “binds”.

B3: humanized anti-CSP-1 antibody, Antibody Number 20 (Table 1) (antibody, human IgG1, V domains shown)
VH: EVQLVESGGDLVKPGGSLKLSCAASGFTFSRYGMSWVRQTPDKRLEWVATISIGGTYTYYPDSMKGRFTISRDNAKNTLYLQMSSLKSEDTAMYYCARRGYGNYSYYGIDYWGQGTSVTVSS
VL: DIVMTQAAFSNPVTLGTSASISCRSSKSLLHSNGITYLYWYLQKPGQSPQLLIYQMSNLASGVPDRFSSSGSGTDFTLRISRVEAEDVGVYYCAQNLELPLTFGAGTKLELK
notes: also called Antibody 20
For the molecule B3, the binding result is “binds”.

B4: humanized anti-CSP-1 antibody, Antibody Number 18 (Table 1) (antibody, human IgG1, V domains shown)
VH: EVQLVESGGDLVKPGGSLKLSCAASGFTFSRYGMSWVRQTPDKRLEWVATISIGGTYTYYPDSMKGRFTISRDNAKNTLYLQMSSLKSEDTAMYYCARRGYGQYSYYGMDYWGQGTSVTVSS
VL: DIVMTQAAFSNPVTLGTSASISCRSSKSLLHSNGITYLYWYLQKPGQSPQLLIYQMSNLASGVPDRFSSSGSGTDFTLRISRVEAEDVGVYYCAQNLELPLTFGAGTKLELK
notes: also called Antibody 18
For B4, the binding result is “binds”.

B5: humanized anti-CSP-1 antibody, Antibody Number 19 (Table 1) (antibody, human IgG1, V domains shown)
VH: EVQLVESGGDLVKPGGSLKLSCAASGFTFSRYGMSWVRQTPDKRLEWVATISIGGTYTYYPDSMKGRFTISRDNAKNTLYLQMSSLKSEDTAMYYCARRGYGNYSYYGLDYWGQGTSVTVSS
VL: DIVMTQAAFSNPVTLGTSASISCRSSKSLLHSNGITYLYWYLQKPGQSPQLLIYQMSNLASGVPDRFSSSGSGTDFTLRISRVEAEDVGVYYCAQNLELPLTFGAGTKLELK
notes: also called Antibody 19
For the molecule B5, the binding result is “binds”.

B6: humanized anti-CSP-1 antibody, Antibody Number 2 (Table 1) (antibody, human IgG1, V domains shown)
VH: QIQLVQSGPELKKPGETVKISCKASGYTFTDYSMHWVKQAPGKGLKWMGWIQTETGEPTYADDFKGRFAFSLETSASTAYLQINNLKNEDTATYFCAPGGFAYWGQGTLVTVSA
VL: DIVMTQAAPSVPVTPGESVSISCRSSKSLLHSNGNTYLYWFLQRPGQSPQLLIYRMSNLASGVPDRFSGSGSGTAFTLRISRVEAEDVGVYYCMQHLEYPLTFGAGTKLELK
notes: also called Antibody 2
With B6, the binding result is “binds”.

B7: humanized anti-CSP-1 antibody, Antibody Number 11 (Table 1) (antibody, human IgG1, V domains shown)
VH: QIQLVQSGPEVKKPGASVKISCKASGYTFTDYSMHWVKQAPGQGLKWMGWINTETGEPTYADDFKGRFTFTLDTSTSTAYLEISSLRSEDTATYFCAPGGFAYWGQGTLVTVSS
VL: DIVMTQSAPSVPVTPGQSVSISCRSSKSLLHSNGNTYLYWFLQKPGQSPQLLIYRMSNRASGVPDRFSGSGSGTDFTLKISRVEAEDVGVYYCMQHLEYPLTFGQGTKLEIK
notes: also called Antibody 11
For the molecule B7, the binding result is on record as “binds”.

B8: humanized anti-CSP-1 antibody, Antibody Number 15 (Table 1) (antibody, human IgG1, V domains shown)
VH: QIQLVQSGPGLKQPGGSVRISCAASGYTFTDYSMHWVKQAPGKGLKWMGWINTETGEPTYADDFKGRFTFSLDTSKSTAYLQINSLRAEDTATYFCAPGGFAYWGQGTLVTVSS
VL: DIVMTQSAPSLPVTPGQSVSISCRSSKSLLHSNGNTYLYWFLQKPGQSPQLLIYRMSNRASGVPDRFSGSGSGTDFTLKISRVEAEDVGVYYCMQHLEYPLTFGQGTKLEIK
notes: also called Antibody 15
For B8, the binding result is given as “binds”.

B9: humanized anti-CSP-1 antibody, Antibody Number 9 (Table 1) (antibody, human IgG1, V domains shown)
VH: QIQLVQSGPELKKPGETVKISCKASGYTFTDYSMHWVKQAPGKGLKWMGWINTETGEPTYADDFKGRFAFSLETSASTAYLQINNLKNEDTATYFCAPGGFAYWGQGTLVTVSA
VL: DIVMTQSAPSVPVTPGQSVSISCRSSKSLLHSNGNTYLYWFLQKPGQSPQLLIYRMSNRASGVPDRFSGSGSGTDFTLKISRVEAEDVGVYYCMQHLEYPLTFGQGTKLEIK
notes: also called Antibody 9
Regarding B9, the binding result was “binds”.

B10: humanized anti-CSP-1 antibody, Antibody Number 13 (Table 1) (antibody, human IgG1, V domains shown)
VH: QIQLVQSGPEVKKPGASVKISCKASGYTFTDYSMHWVRQAPGQGLEWMGWINTETGEPTYAQKFQGRFTFTLDTSTSTAYLEISSLRSEDTAVYFCAPGGFAYWGQGTLVTVSS
VL: DIVMTQSAPSVPVTPGQSVSISCRSSKSLLHSNGNTYLYWFLQKPGQSPQLLIYRMSNRASGVPDRFSGSGSGTDFTLKISRVEAEDVGVYYCMQHLEYPLTFGQGTKLEIK
notes: also called Antibody 13
As to B10, the binding result is on record as “binds”.

B11: humanized anti-CSP-1 antibody, Antibody Number 4 (Table 1) (antibody, human IgG1, V domains shown)
VH: QIQLVQSGPELKKPGETVKISCKASGYTFTDYSMHWVKQAPGKGLKWMGWINTETGEPTYADDFKGRFAFSLETSASTAYLQINNLKNEDTATYFCAPGGFAYWGQGTLVTVSA
VL: DIVMTQAAPSVPVTPGESVSISCRSSKSLLHSNGNTYLYWFLQRPGQSPQLLIYRVSNLASGVPDRFSGSGSGTAFTLRISRVEAEDVGVYYCMQHLEYPLTFGAGTKLELK
notes: also called Antibody 4
Turning to B11, the binding result is given as “binds”.

B12: humanized anti-CSP-1 antibody, Antibody Number 12 (Table 1) (antibody, human IgG1, V domains shown)
VH: QIQLVQSGPEVKKPGASVKISCKASGYTFTDYSMHWVKQAPGQGLKWMGWINTETGEPTYADDFKGRFTFTLDTSTSTAYLEISSLRSEDTATYFCAPGGFAYWGQGTLVTVSS
VL: DIVMTQSAPSLPVTPGQSVSISCRSSKSLLHSNGNTYLYWFLQKPGQSPQLLIYRMSNRASGVPDRFSGSGSGTDFTLKISRVEAEDVGVYYCMQHLEYPLTFGQGTKLEIK
notes: also called Antibody 12
As for B12, the binding result is listed as “binds”.

B13: humanized anti-CSP-1 antibody, Antibody Number 6 (Table 1) (antibody, human IgG1, V domains shown)
VH: QIQLVQSGPELKKPGETVKISCKASGYTFTDYSMHWVKQAPGKGLKWMGWINTETGEPTYADDFKGRFAFSLETSASTAYLQINNLKNEDTATYFCAPGGFAYWGQGTLVTVSA
VL: DIVMTQAAPSVPVTPGESVSISCRSSKSLLHSNGNTYLYWFLQRPGQSPQLLIYRISNLASGVPDRFSGSGSGTAFTLRISRVEAEDVGVYYCMQHLEYPLTFGAGTKLELK
notes: also called Antibody 6
With B13, the binding result is “binds”.

B14: humanized anti-CSP-1 antibody, Antibody Number 5 (Table 1) (antibody, human IgG1, V domains shown)
VH: QIQLVQSGPELKKPGETVKISCKASGYTFTDYSMHWVKQAPGKGLKWMGWINTETGEPTYADDFKGRFAFSLETSASTAYLQINNLKNEDTATYFCAPGGFAYWGQGTLVTVSA
VL: DIVMTQAAPSVPVTPGESVSISCRSSKSLLHSNGNTYLYWFLQRPGQSPQLLIYRLSNLASGVPDRFSGSGSGTAFTLRISRVEAEDVGVYYCMQHLEYPLTFGAGTKLELK
notes: also called Antibody 5
As to B14, the binding result is listed as “binds”.

B15: humanized anti-CSP-1 antibody, Antibody Number 14 (Table 1) (antibody, human IgG1, V domains shown)
VH: QIQLVQSGPGLKQPGGSVRISCAASGYTFTDYSMHWVKQAPGKGLKWMGWINTETGEPTYADDFKGRFTFSLDTSKSTAYLQINSLRAEDTATYFCAPGGFAYWGQGTLVTVSS
VL: DIVMTQSAPSVPVTPGQSVSISCRSSKSLLHSNGNTYLYWFLQKPGQSPQLLIYRMSNRASGVPDRFSGSGSGTDFTLKISRVEAEDVGVYYCMQHLEYPLTFGQGTKLEIK
notes: also called Antibody 14
On to B15, for which the binding result was “binds”.

B16: humanized anti-CSP-1 antibody, Antibody Number 10 (Table 1) (antibody, human IgG1, V domains shown)
VH: QIQLVQSGPELKKPGETVKISCKASGYTFTDYSMHWVKQAPGKGLKWMGWINTETGEPTYADDFKGRFAFSLETSASTAYLQINNLKNEDTATYFCAPGGFAYWGQGTLVTVSA
VL: DIVMTQSAPSLPVTPGQSVSISCRSSKSLLHSNGNTYLYWFLQKPGQSPQLLIYRMSNRASGVPDRFSGSGSGTDFTLKISRVEAEDVGVYYCMQHLEYPLTFGQGTKLEIK
notes: also called Antibody 10
On to B16, for which the binding result is given as “binds”.

B17: humanized anti-CSP-1 antibody, Antibody Number 3 (Table 1) (antibody, human IgG1, V domains shown)
VH: QIQLVQSGPELKKPGETVKISCKASGYTFTDYSMHWVKQAPGKGLKWMGWINTETGEPTYADDFKGRFAFSLETSASTAYLQINNLKNEDTATYFCAPGGFAYWGQGTLVTVSA
VL: DIVMTQAAPSVPVTPGESVSISCRSSKSLLHSSGNTYLYWFLQRPGQSPQLLIYRMSNLASGVPDRFSGSGSGTAFTLRISRVEAEDVGVYYCMQHLEYPLTFGAGTKLELK
notes: also called Antibody 3
Consider B17, for which the binding result is recorded as “binds”.

B18: humanized anti-CSP-1 antibody, Antibody Number 7 (Table 1) (antibody, human IgG1, V domains shown)
VH: QIQLVQSGPEVKKPGASVKISCKASGYTFTDYSMHWVKQAPGQGLKWMGWINTETGEPTYADDFKGRFTFTLDTSTSTAYLEISSLRSEDTATYFCAPGGFAYWGQGTLVTVSS
VL: DIVMTQAAPSVPVTPGESVSISCRSSKSLLHSNGNTYLYWFLQRPGQSPQLLIYRMSNLASGVPDRFSGSGSGTAFTLRISRVEAEDVGVYYCMQHLEYPLTFGAGTKLELK
notes: also called Antibody 7
Consider B18, for which the binding result is “binds”.

These data come from patent US20250011418A1 (ZIELBIO, published 2025).
